From the nanobody polyreactivity screen of Harvey et al. (2022) come the findings set out here.

This series can be described thus: yeast display, Sf9 membrane polyspecificity reagent, FACS + sequencing; frameworks hold sequencing errors. The gist of the method:
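Sorting gates, low and high (top ~1%), were placed on anti-HA fluorescence to track expression and on streptavidin fluorescence to track reagent binding. A clone's polyreactivity label is taken from the gate it came out of. The reagent was 10% biotinylated, detergent-solubilized Sf9 membrane, applied for 1 hour at 4 °C to galactose-induced yeast display cells.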
With “QVQLVESGGGLVQAGGSLRLSCAASGIIFLGYARGWYRQAPGKERELVADIYSGVRTYYADSVKGRFTISRDNAKNTVYLQMNSLKPEDTAVYYCNATWTPYSSKQYYYWGQGTQVTVSS”, the “polyreactivity (PSR sort gate)” value is reported as “low polyreactivity”.

Take “QVQLVESGGGLVQAGGSLRLSCAASGIIFLKYAMGWYRQAPGKERELVAAISRSGGGTYYADSVKGRFTISRDNAKNTVYLQMNSLKLEDTAVYYCAARGVDRQGYRFYYWGQGTQVTVSS”: the “polyreactivity (PSR sort gate)” value was “high polyreactivity”.

On to “QVQLVESGGGLVQAGGSLRLSCAASGIIFLNYVMGWYRQAPGKERELVAAITTSGASTYYADSVKGRFTISRDNAKNTVYLQMNSLKPEDTAVYYCAAVFRHARYRYDYWGLGTQVTVSS”, for which the “polyreactivity (PSR sort gate)” value was “high polyreactivity”.

For the sequence “QVQLVESGGGLVQAGGSLRLSCAASGIIFLSYAMGWYRQAPGKERELVAAIRSRGDSTYYADSVKGRFTISRDNAKNTVYLQMNSLKPEDTAVYYCNARQRRYPYGYWGQGTQVTVSS”, the “polyreactivity (PSR sort gate)” value was “high polyreactivity”.

Regarding “QVQLVESGGGLVQAGGSLRLSCAASGIIFLYYAMGWYRQAPGKERELVAAISKSGGSTYYADSVKGRFTISRDNAKNTVYLQMNSLKPEDTAVYYCAARLWHLSYAGQGGDYWGQGTQVTVSS”, the “polyreactivity (PSR sort gate)” value was “low polyreactivity”.

For the sequence “QVQLVESGGGLVQAGGSLRLSCAASGIIFNANTMLWYRQAPGKERELVAAITRGGSTNYADSEKGRFTISRDNAKNTVYLQMNSLKPEDTAVYYCAARTGYYCGSGGNRYISPYDYWGQGTQVTVSS”, the “polyreactivity (PSR sort gate)” value is on record as “low polyreactivity”.

For the sequence “QVQLVESGGGLVQAGGSLRLSCAASGIIFNSNAMGWYRQAPGKERELVAAISVSGGSTYYADSVKGRFTISRDNAKNTVYLQMNSLKPEDTAVYYCAAVFYYWSLRSYYWGQGTQVTVSS”, the “polyreactivity (PSR sort gate)” value is recorded as “high polyreactivity”.

With “QVQLVESGGGLVQAGGSLRLSCAASGIIFPPYAMGWYRQAPWKEREFVAGITSSGGTYYADSVKGRFTISRDNAKNTVYLQMNSLKPEDTAVYYCAARQGNLRRGVRWFNYWGQGTQVTVSS”, the “polyreactivity (PSR sort gate)” value is on record as “high polyreactivity”.

“QVQLVESGGGLVQAGGSLRLSCAASGIIFPPYTMGWYRQAPGKERELVAGITGNSGTTYYADSVKGRFTISRDNAKNTVYLQMNSLKPEDTAVYYCAVRDVYHRYWGQGTQVTVSS”: the “polyreactivity (PSR sort gate)” value is recorded as “high polyreactivity”.

Take “QVQLVESGGGLVQAGGSLRLSCAASGIIFPRNAMGWSREAPGKERELVAAITSGDTTNYADSVKGRFTISRDNAKKTVYLQMNSQKPADTAVYYCAADQFQGNSGFEYWGQGTQVTVSS”: the “polyreactivity (PSR sort gate)” value is listed as “low polyreactivity”.

“QVQLVESGGGLVQAGGSLRLSCAASGIIFPWYTMGWYRQAPGKERELVAAISSGGRTNYADSVKGRFTISRDNAKNTVYLQMNSLKPEDTAVYYCAAKFYRDRDWGQGTQVTVSS”: the “polyreactivity (PSR sort gate)” value is “high polyreactivity”.

For “QVQLVESGGGLVQAGGSLRLSCAASGIIFPYNTMGWYRQAPGKERELVASIDDGGSTNYADSVKGRFTISRDNAKNTVYLQMNSLKPEDTAVYYCAADPYWFFPHYDSWGQGTQVTVSS”, the “polyreactivity (PSR sort gate)” value is given as “low polyreactivity”.

Consider “QVQLVESGGGLVQAGGSLRLSCAASGIIFPYYAMGWYIQAPGKERELVASISSRGSSTYYADSVKGRFTISRDNAKNTVFLQMNSLKPEDTAVYYSAAQNFYRYYWGQGTQVTVSS”, for which the “polyreactivity (PSR sort gate)” value is on record as “high polyreactivity”.

As for “QVQLVESGGGLVQAGGSLRLSCAASGIIFPYYAMGWYRQAPGKERELVAGISSSGGITYADSVKGRFTISRDNAKNTVYLQMNSLKPEDTAVYYCNAEYQWLEYDFWGQGTQVTVSS”, the “polyreactivity (PSR sort gate)” value is given as “low polyreactivity”.

On to “QVQLVESGGGLVQAGGSLRLSCAASGIIFQFYAMGWYRPAPGKERELVAAISRSGGITHYADSVKGRFTISRDNAKNTVYLQMNSLKPEDTAVYYCNAVQPARFVGGFGTGVDYWGQGTQVTVSS”, for which the “polyreactivity (PSR sort gate)” value is reported as “high polyreactivity”.

Consider “QVQLVESGGGLVQAGGSLRLSCAASGIIFQPYTMGWYRQAPGKERELVAAISYSGGSTYYADSVKGRFTISRDNAKNTVYLQMNSLKPEDTAVYYCAARRYPYSGTHRGFYYWGQGTQVTVSS”, for which the “polyreactivity (PSR sort gate)” value was “high polyreactivity”.

“QVQLVESGGGLVQAGGSLRLSCAASGIIFQRNAMGWYRQAPGKERELVAAISASGGSTNYADSVKGRFTISRDNAKNTVSLQMNSLKPEDTAVYYCAAEDDGDFDYWGQGTQVTVSS”: the “polyreactivity (PSR sort gate)” value is “low polyreactivity”.

As for “QVQLVESGGGLVQAGGSLRLSCAASGIIFQRNDIGWYREAPGKERELVANIRDGGITYADSVKGRFTISRDNAKNTVYLQMNSLKPDDTAVYYCALEDTSPGYGDQSSNAAYYYWGQGTQVTVSS”, the “polyreactivity (PSR sort gate)” value was “low polyreactivity”.

Take “QVQLVESGGGLVQAGGSLRLSCAASGIIFQTYAMGWYRQAPGKERELVAAISRSGGSTYYADSVKGRFTISRDNAKNTVYLQMNSLKPEDTAVYYCAAYGYHVNWLKGNYWGQGTQVTVSS”: the “polyreactivity (PSR sort gate)” value is listed as “high polyreactivity”.

As to “QVQLVESGGGLVQAGGSLRLSCAASGIIFQVYAMGWYRQAPGKERELVAAISDDGSTNYADSVQGRFTISRDNAKNTGYLQMNSLKPEDTAVYYCAKDSWGRLYYRYDYWGQGTQVTVSS”, the “polyreactivity (PSR sort gate)” value is listed as “low polyreactivity”.

Regarding “QVQLVESGGGLVQAGGSLRLSCAASGIIFQYYAMGWYRQAPGKERELVAAITSSGGSTFYADSVKGRFTISRDNSKNTVYLQMNSLKPEDTAVFYCAGVYHRSTYDYWGQGTQVTVSS”, the “polyreactivity (PSR sort gate)” value is on record as “high polyreactivity”.

With “QVQLVESGGGLVQAGGSLRLSCAASGIIFQYYVMGWYRQAPGKERELVATISTRGGSTYYADSVKGRFTISRDNAKNTVYLQMNSLKPEDTAVYYCAAPYGTYAYDYWGQGTQVTVSS”, the “polyreactivity (PSR sort gate)” value was “high polyreactivity”.

For the sequence “QVQLVESGGGLVQAGGSLRLSCAASGIIFRGNAMGWYRQAPRKEREFVAAISLRGSRTYYADSVKGRFTISRDNAKNTVYLQMNSLKPEDTAVYYCNARGGPSPFGSDYWGQGTQVTVSS”, the “polyreactivity (PSR sort gate)” value is “high polyreactivity”.

As for “QVQLVESGGGLVQAGGSLRLSCAASGIIFRGNAMGWYRQAPRKERELVAAISSAGSTNYADSVKGRFTISRDNAKNTVYLQMNSLKPEDTAVYYCAKGSSKYHVTLRGRGYYWGQGTQVTVSS”, the “polyreactivity (PSR sort gate)” value is on record as “low polyreactivity”.

For the sequence “QVQLVESGGGLVQAGGSLRLSCAASGIIFRGNAMGWYRQEPGKESEIVAAISLRGSRTYYADSVKGRFTISRDNAKNTVYLQMNSLKPEDSAVYYCNARGGTSPFGSDYWGQGTQVTVSS”, the “polyreactivity (PSR sort gate)” value was “high polyreactivity”.

As to “QVQLVESGGGLVQAGGSLRLSCAASGIIFRGYAMGWYREAPGKERELVAAIRDRGGSTYYADSVKGRFTISRDNAKNTVYLQMNSLKPEDTAVYYCATENRVYRHPGYDYDYWGQGTQVTVSS”, the “polyreactivity (PSR sort gate)” value is “low polyreactivity”.

On to “QVQLVESGGGLVQAGGSLRLSCAASGIIFRGYVMGWYRQAPGKERELVAAISRSGGRTYYADSVKGRFTISRDNAKNTVYLQMNSLKPEDTAVYYCNAVRYVLGYSYDYNYWGQGTQVTVSS”, for which the “polyreactivity (PSR sort gate)” value was “high polyreactivity”.

For the sequence “QVQLVESGGGLVQAGGSLRLSCAASGIIFRLNTMGWYRPAPGTERELVAAITSGGSTHYADSVKGRFTISRDNAKNTVYLQRISLNPEDTAVYYCAAGHRAKYWAWHFYYPGDYWGQGTQVTVSS”, the “polyreactivity (PSR sort gate)” value is on record as “low polyreactivity”.

In the case of “QVQLVESGGGLVQAGGSLRLSCAASGIIFRLYAMGWYRQAPGKERELVAAITSRGGSTYYADSVKGRFTISRDNAKKTVYLQMNSLKPEDTAVYYCAARPVYSGYDYWGQGTQVTVSS”, the “polyreactivity (PSR sort gate)” value is given as “high polyreactivity”.

On to “QVQLVESGGGLVQAGGSLRLSCAASGIIFRLYGMGWYRQAPGKERELVAGINTGGSTYADSVKGRFTISRDNAKNTVYLQMNSLKPEDTAVYYCATGPYLIYDYWGQGTQVTVSS”, for which the “polyreactivity (PSR sort gate)” value is reported as “low polyreactivity”.

For “QVQLVESGGGLVQAGGSLRLSCAASGIIFRNYAMGLYRQAPGKEREFVAAISGSGTSTYYADSVKGRFTISRDNAKNTVYLQMNSLKPEDTAVYYCAAEKYSYPYDYEYWGQGTQVTVSS”, the “polyreactivity (PSR sort gate)” value is “high polyreactivity”.

Turning to “QVQLVESGGGLVQAGGSLRLSCAASGIIFRNYAMGWYRQAAGNERAWVAAISWTGDSTYYADSVKGRFTISRDNAKNTVYLQMNSQKPEETAVYYCAAEAYYGLWMDYWGQGTQVTVSS”, the “polyreactivity (PSR sort gate)” value is recorded as “low polyreactivity”.

On to “QVQLVESGGGLVQAGGSLRLSCAASGIIFRNYAMGWYRQAPGEERELVATIRYRGGRTYADSVKGRFTISRDNAKNTVYLQMNSLKPEDTAVYYCNTYARYAYLTGRMDYWGQGTQVTVSS”, for which the “polyreactivity (PSR sort gate)” value is reported as “high polyreactivity”.

On to “QVQLVESGGGLVQAGGSLRLSCAASGIIFRNYAMGWYRQAPGKERELVAAISWTGDSTYYADSVKGRFTISRDNAKNTVYLQMNSLKPEDTAVDYCAAEAYYGLWMDYWGQGTQVTVSS”, for which the “polyreactivity (PSR sort gate)” value was “low polyreactivity”.

Regarding “QVQLVESGGGLVQAGGSLRLSCAASGIIFRPNAMGWYRQEPGKERELVAAISRNGVRTYYSDSVKGRFTISRDNAKITVYLQMNSLKPEDTAVYYCNRDYNAAYDWGEGTQVTVSS”, the “polyreactivity (PSR sort gate)” value is listed as “high polyreactivity”.

With “QVQLVESGGGLVQAGGSLRLSCAASGIIFRRYAMGLYRQAPGKERELVAAISSRGGSTYYADSVKGRFTISRDNAKNTVYLQMNCLKPEDTAVYFCAKGFSGTGGSGDFGYWGQGTQETVSS”, the “polyreactivity (PSR sort gate)” value was “high polyreactivity”.

Consider “QVQLVESGGGLVQAGGSLRLSCAASGIIFRRYAMGWYRQAPGKERELVAAITGSGGSTYYADSVKGRFTISRDNAKNTVYLQMNSLKPEDTAVYYCAAQSLLRFASSRYNSWGQGTQVTVSS”, for which the “polyreactivity (PSR sort gate)” value was “high polyreactivity”.

Turning to “QVQLVESGGGLVQAGGSLRLSCAASGIIFRSYAMGWYRQAPGKERELVAAISRRGGSTYYADSVKGRFTISRDNAKNTVYLQMNSLKPEDTAVYYCAATVLSSPEPYDYWGQGTQVTVSS”, the “polyreactivity (PSR sort gate)” value is “high polyreactivity”.

Regarding “QVQLVESGGGLVQAGGSLRLSCAASGIIFRSYAMGWYRQAPGKERELVAGISLSGGSTYYADSVKGRFTISRDNAKNTVYLQMNSLKPEDTAVYYCATRNHYFRALRYGYCGQGTQVTVSS”, the “polyreactivity (PSR sort gate)” value was “high polyreactivity”.

In the case of “QVQLVESGGGLVQAGGSLRLSCAASGIIFRSYAMGWYRQAPGKERELVAGISLSGGSTYYADSVKGRFTISRDNAKNTVYLQMNSLKPEDTAVYYCATRNHYFRALRYGYWGQGTQVTVSS”, the “polyreactivity (PSR sort gate)” value is “high polyreactivity”.

For “QVQLVESGGGLVQAGGSLRLSCAASGIIFRSYTMGWYRQAPGKERELVASITRSGGITYYADSVKGRFTISRDNAKNTVYLQMNSLKPEDTAVYYCAARHRYYYQYRSDYWGQGTQVTVSS”, the “polyreactivity (PSR sort gate)” value is “high polyreactivity”.
